Measurements reported in patent US20060253917A1 (published 2006).

T1: PN29970 aa 1-158 (Oryza sativa, UniProt A2WY50 120-277)
T1 construct: prey, AD fusion; also called Putative CorA-like Mg2+ Transporter Protein
T1 sequence: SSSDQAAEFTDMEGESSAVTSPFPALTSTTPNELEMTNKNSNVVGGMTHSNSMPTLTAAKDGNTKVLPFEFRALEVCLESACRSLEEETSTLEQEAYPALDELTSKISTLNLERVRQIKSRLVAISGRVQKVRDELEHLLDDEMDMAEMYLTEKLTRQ

T2: OsPN23390 aa 595-845 (Oryza sativa, UniProt Q7XPJ0 617-867)
T2 construct: prey, AD fusion
T2 sequence: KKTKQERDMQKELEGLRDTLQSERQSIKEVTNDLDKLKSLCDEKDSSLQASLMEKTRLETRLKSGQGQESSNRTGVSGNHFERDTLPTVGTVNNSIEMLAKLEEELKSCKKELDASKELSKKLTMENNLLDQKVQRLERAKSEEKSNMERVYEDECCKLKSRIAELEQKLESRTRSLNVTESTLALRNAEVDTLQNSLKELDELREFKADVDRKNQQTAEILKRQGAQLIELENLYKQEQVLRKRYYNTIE

T3: OsPN23390 aa 576-738 (Oryza sativa, UniProt Q7XPJ0 598-760)
T3 construct: prey, AD fusion
T3 sequence: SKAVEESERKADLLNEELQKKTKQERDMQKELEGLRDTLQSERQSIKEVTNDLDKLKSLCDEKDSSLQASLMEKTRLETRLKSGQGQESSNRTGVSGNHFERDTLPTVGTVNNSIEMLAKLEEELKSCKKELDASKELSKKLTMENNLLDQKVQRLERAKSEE

T4: OsPN29956 aa 96-235 (Oryza sativa, UniProt Q0JJ05 613-752)
T4 construct: prey, AD fusion; also called Novel Protein PN29956, Fragment, nuclear matrix constituent
T4 sequence: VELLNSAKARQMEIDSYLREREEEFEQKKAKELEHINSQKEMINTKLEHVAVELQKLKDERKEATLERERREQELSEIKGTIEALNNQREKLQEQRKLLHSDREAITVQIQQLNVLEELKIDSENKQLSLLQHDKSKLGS

T5: OsPN29956 aa 2-373 (Oryza sativa, UniProt Q0JJ05 519-890)
T5 construct: prey, AD fusion
T5 sequence: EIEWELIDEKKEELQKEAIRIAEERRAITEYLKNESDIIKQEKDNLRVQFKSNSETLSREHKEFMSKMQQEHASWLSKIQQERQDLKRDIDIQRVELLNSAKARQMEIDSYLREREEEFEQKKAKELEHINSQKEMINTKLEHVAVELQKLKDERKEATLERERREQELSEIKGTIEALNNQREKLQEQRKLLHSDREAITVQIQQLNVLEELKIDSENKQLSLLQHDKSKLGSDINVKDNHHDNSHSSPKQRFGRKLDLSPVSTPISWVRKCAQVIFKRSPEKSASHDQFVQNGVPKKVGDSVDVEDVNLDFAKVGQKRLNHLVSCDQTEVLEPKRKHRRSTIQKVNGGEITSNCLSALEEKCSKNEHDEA

T6: OsPN29965 aa 12-124 (Oryza sativa, UniProt Q6YZ52 874-986)
T6 construct: prey, AD fusion; also called Novel Protein PN29965, Fragment, Similar to A. thaliana Kinesin (Centromere Protein)-Like Heavy Chain-Like Protein
T6 sequence: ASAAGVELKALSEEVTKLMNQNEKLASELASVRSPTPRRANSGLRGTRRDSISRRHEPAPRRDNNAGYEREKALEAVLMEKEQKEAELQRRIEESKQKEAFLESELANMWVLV

T7: OsPN29969 aa 16-123 (Oryza sativa, UniProt A2XK00 17-123)
T7 construct: prey, AD fusion; also called Novel Protein PN29969, Similar to A. thaliana Unknown Protein BAB01990
T7 sequence: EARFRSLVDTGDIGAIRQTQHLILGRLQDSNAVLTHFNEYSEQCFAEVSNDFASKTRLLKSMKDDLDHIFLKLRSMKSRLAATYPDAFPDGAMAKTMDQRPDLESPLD

T8: OsPN25381 aa 30-218 (Oryza sativa, UniProt A3BV82 165-353)
T8 construct: prey, AD fusion; also called Protein 13357265 Putative CorA-like Mg2+ Transporter Protein
T8 sequence: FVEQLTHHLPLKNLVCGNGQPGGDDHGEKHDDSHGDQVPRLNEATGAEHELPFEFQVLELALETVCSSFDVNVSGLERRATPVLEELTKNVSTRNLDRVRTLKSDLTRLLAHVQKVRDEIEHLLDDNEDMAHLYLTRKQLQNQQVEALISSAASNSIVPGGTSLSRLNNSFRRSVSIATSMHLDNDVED

T9: OsMADS1 aa 74-172 (Oryza sativa, UniProt A2XDY1 74-172)
T9 construct: prey, AD fusion; also called PN19788
T9 sequence: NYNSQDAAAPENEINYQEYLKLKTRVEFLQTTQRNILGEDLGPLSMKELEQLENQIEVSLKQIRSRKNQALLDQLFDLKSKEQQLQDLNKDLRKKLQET


Tests used:
[1] = molecular target: T1, PN29970 aa 1-158; experiment: Y2H; output trait library
Summary of the method: (§1)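 Protein-protein interactions were detected in an automated, high-throughput yeast two-hybrid assay from Myriad Genetics Inc. (Salt Lake City, Utah), with a bait clone encoding a defined amino-acid fragment of a rice protein screened against the input trait or output trait rice prey library. Interacting proteins were identified by BLAST comparison of the encoding sequences of retrieved prey clones against databases.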

[2] = molecular target: T2, OsPN23390 aa 595-845; experiment: Y2H; output trait library
Summary of the method: as §1

[3] = molecular target: T3, OsPN23390 aa 576-738; experiment: Y2H; output trait library
Summary of the method: as §1

[4] = molecular target: T4, OsPN29956 aa 96-235; experiment: Y2H; output trait library
Summary of the method: as §1

[5] = molecular target: T5, OsPN29956 aa 2-373; experiment: Y2H; output trait library
Summary of the method: as §1

[6] = molecular target: T6, OsPN29965 aa 12-124; experiment: Y2H; output trait library
Summary of the method: as §1

[7] = molecular target: T7, OsPN29969 aa 16-123; experiment: Y2H; output trait library
Summary of the method: as §1

[8] = molecular target: T8, OsPN25381 aa 30-218; experiment: Y2H; output trait library
Summary of the method: as §1

[9] = molecular target: T9, OsMADS1 aa 74-172; experiment: Y2H; input trait library
Summary of the method: as §1

binding result [1] | binding result [2] | binding result [3] | binding result [4] | binding result [5] | binding result [6] | binding result [7] | binding result [8] | binding result [9] | Binder
binds | binds | binds | binds | binds | binds | binds | binds |  | OsCYCOS2 aa 50-233 (other, bait, Gal4 DBD fusion; also called PN20257; O. sativa Cyclin OsCYCOS2) KRGLLDKPAAKNQSGHRPMTRKFAATLANQPSIAPLAPIGSERQKRTADSAFHGPADMECTKITSDDLPLPMMSEMDEVMGSELKEIEMEDIEEAAPDIDSCDANNSLAVVEYVDEIYSFYRRSEGLSCVSPNYMLSQNDINEKMRGILIDWLIEVHYKLELLDETLFLTVNIIDRFLARENVV
 |  |  |  |  |  |  |  | binds | OsRAP1B aa 65-200 (other, bait, Gal4 DBD fusion; also called PN20232) KILERYERYSYAEKVLISAESDTQGNWCHEYRKLKAKVETIQKCQKHLMGEDLESLNLKELQQLEQQLENSLKHIRSRKSQLMLESINELQRKEKSLQEENKVLQKELVEKQKVQKQQLQWDQTQPQTISSSSSFM
